Data: doi:10.1101/2022.04.08.487687, “In Silico Improvement of Highly Protective Anti-Malarial Antibodies” (bioRxiv, 2022)
No end group written: not given here.

Target: T1, peptide 21 (PfCSP residues 101-115), biotinylated (Plasmodium falciparum 3D7, UniProt Q7K740, also: biotin, position not given here)
T1 construct: Biotinylated probe used in AlphaLISA and BLI; also called Pep21; P21
T1 chain: NPDPNANPNVDPNAN
Assay: BLI; Octet Red384; biotinylated Pep21 immobilised on streptavidin biosensors; Fab serially diluted from 1000 to 62.5 nM; 30°C; PBS + 1% BSA; global fit, 1:1 Langmuir model
Conditions: both partners purified

B1: P3-43 Fab (m43.151 variant P100KH) (Fab, V domains shown)
VH: QVHLVQSGAEVKKPGASVKVSCKASGYTFTSYAIHWVRQAPGQRLEWMGWIKGGNGNTRYSQKFQDRVTITRDTSASTAYMELSSLRSEDTAVYYCALLTVITKDDAFDIWGQGTMVTVSS
VL: not shown
notes: as the heavy chain of m5 (m43.151) with the stated change; as the light chain of m5 (m43.151), no change stated; Best m43.151-based variant; source: Fab produced from the antibody
Q: Which Kd does the source give for B1 here?
A: 8.9 ± 0.5 nM
